Test results published in patent US20100015637A1 (AbbVie / Abbott, published 2010).
One block for each molecule: values may come before it.

What was measured:
[1] = biological target: human PlGF-1 comprising amino acids 1-137 produced in human embryonic kidney cells (human) (UniProt P49763); test: Format 2 …, capture MAb264, detection Pb264; sFlt-1 1533 pmol/L (ratio 50)
[2] = biological target: T1, human PlGF-1 comprising amino acids 1-137 produced in human embryonic kidney cells (human, UniProt P49763 19-221); test: … sandwich, capture MAb255, detection MAb826; antigen 15 pg/mL
T1 construct: Mature human PlGF-1 with 6xHis tag; also called HEK (1-137); full length HEK human PlGF-1 (1-137)
T1 sequence: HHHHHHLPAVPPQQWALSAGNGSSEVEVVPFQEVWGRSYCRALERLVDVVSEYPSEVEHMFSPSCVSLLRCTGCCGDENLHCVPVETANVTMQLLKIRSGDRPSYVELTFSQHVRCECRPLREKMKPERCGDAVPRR
Summary of the method: (§1)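 Values are chemiluminescent relative light units (RLU) from a sandwich immunoassay of human PlGF-1 antigen preparations, some of them recombinant forms made in CHO cells. Antigen levels ran from 0 to 1500 pg/mL. Capture was by a monoclonal anti-human PlGF-1 antibody bound to magnetic microparticles, and detection was by an acridinium ester-labeled monoclonal anti-human PlGF-1 antibody.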

[3] = biological target: T2, CHO human PlGF-1 comprising amino acids 1-137 (human PlGF-1-His (1-131), CHO 6305) (human, UniProt P49763 19-221, N-glycans at N21 (completely glycosylated) and N89 (partially glycosylated)); test: as above
T2 construct: Mature human PlGF-1 with 6xHis tag (137 amino acids); also called CHO (1-137)
T2 sequence: T1 sequence
Summary of the method: as §1

[4] = biological target: T3, human PlGF-1 fragment (comprising amino acids 17-131) produced in human embryonic kidney cells (human, UniProt P49763 35-221); test: as above
T3 sequence: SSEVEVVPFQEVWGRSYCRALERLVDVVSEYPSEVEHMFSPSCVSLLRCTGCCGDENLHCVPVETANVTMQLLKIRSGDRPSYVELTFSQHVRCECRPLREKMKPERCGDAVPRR
Summary of the method: as §1

[5] = biological target: T4, CHO human PlGF-1 fragment (comprising amino acids 17-131; ATCC PTA-8540) (human, UniProt P49763 35-221); test: as above
T4 sequence: T3 sequence
Summary of the method: as §1

[6] = biological target: recombinant human PlGF-1 (comprising amino acids 1-131) expressed in E. coli (R&D Systems) (human) (UniProt P49763); test: SPR (BIAcore 2000); MAb captured on anti-mouse IgG chip, antigen in solution; 1:1 fit with mass transport
[7] = biological target: T1, human PlGF-1 comprising amino acids …; test: … sandwich, capture MAb255, detection MAb826; antigen 0 pg/mL (blank)
Summary of the method: as §1

[8] = biological target: T2, CHO human PlGF-1 comprising amino acids …; test: as above
Summary of the method: as §1

[9] = biological target: T3, human PlGF-1 fragment (comprising amino …); test: as above
Summary of the method: as §1

[10] = biological target: T4, CHO human PlGF-1 fragment (comprising …); test: as above
Summary of the method: as §1

[11] = biological target: T5, CHO-sourced human PlGF-1 (comprising amino acids 1-131; ATCC PTA-8537) (human, UniProt P49763 19-221, glycosylated (CHO-expressed)); test: SPR (BIAcore 2000); MAb captured on anti-mouse IgG chip, antigen in solution; 1:1 fit with mass transport
T5 sequence: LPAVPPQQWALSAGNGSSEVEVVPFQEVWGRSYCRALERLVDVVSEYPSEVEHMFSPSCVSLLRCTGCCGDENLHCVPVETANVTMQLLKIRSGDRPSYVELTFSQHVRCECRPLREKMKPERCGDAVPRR
Method: (§2) First, a ˜5,500 RU rabbit anti-mouse IgG Capture Biosensor was created by amine-coupling rabbit anti-mouse IgG antibody (BIAcore® International AB, a GE Healthcare company, Uppsala, Sweden) to a CM4 biosensor chip (BIAcore® International AB, a GE Healthcare company, Uppsala, Sweden) via EDC/NHS/Ethanolamine chemistry provided in an Amine Coupling Kit (BIAcore® International AB, a GE Healthcare company, Uppsala, Sweden). Human PlGF-1 monoclonal antibodies and human PlGF-1 antigens were diluted into a running buffer (hereinafter “Running Buffer”) composed of HBS-EP buffer (BIAcore® International AB, a GE Healthcare company, Uppsala, Sweden) spiked with 0.1% BSA and 0.1% CM-Dextran.
(§3) After equilibrating the rabbit anti-mouse IgG Capture Biosensor for 5 minutes at 5 μL/minute with Running Buffer, 5 to 10 μL of human PlGF-1 monoclonal antibody was injected over individual flow cells with one flow cell being left blank as a reference flow cell. The flow cells were washed for 6 minutes at 50 μL/minute with Running Buffer before injecting 150 μL of human PlGF-1 or human PlGF-1 fragment antigen at a […] concentration across the biosensor, which was immediately followed by 15 minutes of Running Buffer. The biosensor was regenerated with one 30 μL injections of 10 mM Glycine pH 1.7 (BIAcore® International AB, a GE Healthcare company, Uppsala, Sweden) at a flow rate of 10 μL/minute.

[12] = biological target: T4, CHO human PlGF-1 fragment (comprising …); test: as above
Method: as §2, §3

% Inhibition [1]: 93.6% | PlGF-1 Measured [1]: 50.4 pg/mL
Molecule: native sFlt-1, isolated from human placental tissue (from UniProt P17948 27-687) (receptor)

RLU [2]: 26700 RLU | RLU [3]: 14500 RLU | RLU [4]: 17200 RLU | RLU [5]: 13300 RLU | Kd [6]: 0.368 nM | koff [6]: 0.000121 s⁻¹ | kon [6]: 329000 M⁻¹ s⁻¹ | RLU [7]: 6110 RLU | RLU [8]: 6270 RLU | RLU [9]: 5760 RLU | RLU [10]: 5940 RLU | Kd [11]: 1.7 nM | koff [11]: 0.000123 s⁻¹ | kon [11]: 73000 M⁻¹ s⁻¹ | Kd [12]: 0.71 nM | koff [12]: 0.000129 s⁻¹ | kon [12]: 182000 M⁻¹ s⁻¹
B1: monoclonal antibody 1-255-713 (produced by murine hybridoma cell line 1-255-713, ATCC PTA-8536) (antibody, mouse IgG2a, V domains shown)
VH: QVHLQQSGAELMKPGASVKISCKATGYTFSSYWIEWVKQRPGHGLEWIGEILPGSVSNNFNEKFKDKATLTADPSSNTAYIQVSSLTSEDSAVYYCARSTGFYYGGNYFDHWGQGTTLAVSS
VL: DVVMTQTPLSLPVSPGDQASISCRSSQSLVHSNGHTYLHWYLQKPGQSPKLLIYKVSNRFSGVPDRVSGSGSGTDFTLKISRVEAEDLGVYFCSQSTHVPPTFGGGTKLEIKR
notes: also called MAb255

Kd [6]: 0.092 nM | koff [6]: 0.000214 s⁻¹ | kon [6]: 2.34e+06 M⁻¹ s⁻¹ | Kd [11]: 0.498 nM | koff [11]: 0.000325 s⁻¹ | kon [11]: 652000 M⁻¹ s⁻¹ | Kd [12]: 0.219 nM | koff [12]: 0.000291 s⁻¹ | kon [12]: 1.33e+06 M⁻¹ s⁻¹
B2: monoclonal antibody 2-826-335 (produced by murine hybridoma cell line 2-826-335, ATCC PTA-8539) (antibody, mouse IgG1, V domains shown)
VH: QVQLKQSGPGLVQPSQSLSITCTVSGFSLTTYGIHWVRQSPGKGLEWLGVMWSGGDTDYDAAFISRLSISKDNSKSQVFFKMNSLQANDTGIYYCARYRFYGMDYWGQGTSVTVSS
VL: AIQMTQSSSSFSVSLGDRVTITCKASEDIYNRFAWYQQKPGNAPRLLISGAASLEAGVPSRFSGSGSGQDYTLSITSLQTEDVATYYCQQYWSTPWTFGGGTKLEIKR
notes: also called MAb826
